Source: the domain aggregation screens of Martell et al. (2025)

Assay: soluble fraction after stress (log2 fold change); higher = more stays soluble; pooled small domains, quantitative proteomics
Conditions: stress: 75 degC
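Further: 20 min heating vs room temperature control held 20 min.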

HMNQEFRMPNAIKGVELSEENKQQLTQGEKVFLEGMTSAKGSLFDAYVYIDQEKKTLAFDFPEK
soluble fraction (log2): 0.0813

HMNQKTQMTKQILAESLKKLMLHHSFEKITIKDITDAAGFIRPTFYNHFKDKYDLVEWIFTEEI
soluble fraction (log2): -0.287

HMNQKVRQLLSQAQAEMERKNYKQAIKLLDQALAIEPHSGELHFMKGYAWMSMGEFEKALESLYEARNYA
soluble fraction (log2): -1.4

HMNQPRQRKVIFELIDERNALERVLMHFAHLEKQVEKIDERKYQVTLYYDKEDETEILIRVLSFG
soluble fraction (log2): -2.01

HMNQTEKSKITHNELLKAAHSLFIEQGFNHTTITDIVTRAGYSTGIFYKHYKTKTDILVELWTNYIE
soluble fraction (log2): -2.27

HMNQWQLLSEDGAILGTRVLYHPHETEQPFTRSLSGVKIPAHVQSVTIRAGDLVHGFGGREIQMQLPPIV
soluble fraction (log2): -0.0313

HMNREENIQIGRDLLERELRKQGMDLQENLRQEVLLDGAKKLGFNNTDDLLAAIGDLKVTPAMFIGKIA
soluble fraction (log2): 0.0484

HMNREMLVHAIGQLKEKYASALELKYWHGFTEREIAAFLNISEKAANSRLVRGRVMLRKLLE
soluble fraction (log2): 0.0264

HMNREYELTAEESGQRLDKYLAGEMTDLSRSRIKELVQAGEILVNGKKSKVSYKVQKDDLIQVIVLPLE
soluble fraction (log2): -0.402

HMNRITEFVVPEGTKKIRADKLLAESFPDHSRSDFHRAFDASLVRLEGQPISKNRKISQGDVLVFEMPEI
soluble fraction (log2): 0.505

HMNRPQDLGEPYDGQFREHPEAWAFYAAQSPSYRRSASWWVLGAKQEVTRQRRLAALIDASAQGTRIPALT
soluble fraction (log2): -1.8

HMNRREFQFSEGSSNKFWSIELRDQSFIVHYGKIGTNGQAQEKTFATADAAKKEHDKLIAEKTKKGYVEVQ
soluble fraction (log2): -0.34

HMNRTKYYDFEGHPAKVVRLTLPVYLNKIGDEVVVYDSQKFAREASPISESQYNRMVAEIFQP
soluble fraction (log2): -0.233

HMNSEAVQNVIDKISALPDDITAKAKSQIEEARAAYEALSDSEKARVTNYSTLVAAEKKLASVVKD
soluble fraction (log2): 0.558

HMNSEERVLDTASKWLVKLDEGLDESEAQVLKVWLATPLHRDTFLEMVALWDKMSVLNELADIV
soluble fraction (log2): -1.65

HMNSISDSELKALIKNNYLKFLKRIASDEEIEYHFNQIKNKTILLDELDSIFQNSQEYKDLVEHNNKIQN
soluble fraction (log2): -0.268

HMNSKQELAYQTIRARIVDGSYGPGYRIVIDEVARELGVSPIPVREAVRRLEAEGLITYTRHAGARVVA
soluble fraction (log2): -0.219

HMNSLQLGSRGPTVSALQAKLNTMLVPSPRLVADGSFGPKTAQAVKAFQQMKRLVADGVVGPKTAAALGLS
soluble fraction (log2): -0.156

HMNSLQNNLKQARTRVGLTQGVLASQAGISRQAYSTLESGSANPSTEVALRLAQALQERVELLFYLPER
soluble fraction (log2): -0.948

HMNSNKFANAAAVAVAEKPADSYNPLFIYGPSGVGKTHLLYAIANEIHKHHPDYNIVYIKGDQFTNELIN
soluble fraction (log2): 0.088

HMNSNLSLTSYEEKIFFLLEKEKNLDELILESSFKAGEILSILMDLEIKHAIVSIPGGKYRRK
soluble fraction (log2): -3.85

HMNSNQESFENWLSANSWYNKDRAMRVFADSLGQELRNSGVSFEKALTQISAEVRKEFSHKFQ
soluble fraction (log2): -0.491

HMNSNSLSFSKFMQEVEAGRVIEVQIKGNDIQGELSDGSKFKTYSPNYPNLVDKLSENKVSIVATPL
soluble fraction (log2): -0.0878

HMNSNTIIFSQFLSEVDNGRVTQVQIQGNNIKGTLSNGKDFITYAPNDPNLIEKLTSKGVSISASPID
soluble fraction (log2): 0.0526

HMNSNTIIINDIMTKIGKEVKNFTEIYSIILKALAEHGEEYVRTNTEYALKNFTGNFDIFLEQLLLK
soluble fraction (log2): -0.207

HMNSRAERKEAAKEAIRNLLREGMTFEELTGPWLEKRFAEEPFNRGARSWQMLISEIKEEPEFQHL
soluble fraction (log2): -0.014

HMNSRQPEEEALFELLAKNPYSDEQLEEIRIAIGSGISYKDVLVIADIKNTAKQMKKLRLKFTKDTG
soluble fraction (log2): -0.561

HMNSTEQQTERFLATLTSLGGNAGNQRLQEALGWQGSTYQRIKQHLLDEGRIRTGRGRGGSVALSEATAT
soluble fraction (log2): 0.0863

HMNSTGVYQRPDGFWEYRFTLSINGKKLPRRKSTDLMGNKLKTKREAIKAREEAIIALRTEKTI
soluble fraction (log2): -1.42

HMNSTVKVPNVVGMSVPQAKALLEQNHLLVQGIREVSTDKAPAGIVINQLPYSDAEVKEERHIYLTVSKGK
soluble fraction (log2): 0.968

HMNSVKSPMPGTILGLKVSVGDTVKVGDELLVLESMKMENMINSPIDGTVSKILISEGDSVQHGQELII
soluble fraction (log2): 0.238

HMNSVSARRSAAITAISTGRIHSQEDLVQALKKAGYPVTQATASRDIEEIGAVRIRNQKGEMVYAIS
soluble fraction (log2): 0.208

HMNTEEITYSRFQQMLEAGEISQVSIESNRILILPSEETGIEKVLYTGIINDPGLVERLNSAGVEFRAPIE
soluble fraction (log2): -0.31

HMNTEFDVPDVVGKTLDEAEFVLKGSNLKRGLIMPVDDPSKAPGTIVRQNPEAGAGNKIRVGDVVDLWVVG
soluble fraction (log2): 0.271

HMNTELSPKVWDVVQEFILYRKEIKAPMTEHAVKLLIGQLQKLSSDPDEQIEILRQSIVNGWKGIFSLK
soluble fraction (log2): -1.2

HMNTGTTISYSDFRDRVASGTVKEVQISDDRITGVLKNDETFNTVPVGNDSGLTKLLDDNGVTYSGTP
soluble fraction (log2): 0.299

HMNTIFSVNGPVVKVKDTKDFSMMEMVYVGEKKLIGEVIGITESFTTIQVYEVTTGLKVGEPVYTTGAPM
soluble fraction (log2): -0.361

HMNTIIHPIRLAYVDSGSIKSMAEQAEIDVKILTSEANSQIFWAIGDEKQIDRLYNLISQVDIIQNK
soluble fraction (log2): -1.86

HMNTKHVFIIEQDDEKKRLDIFLVEKLQDSRSFLKKGIVEGWVKVNESVVKPNYKLKQKDQITVIIPP
soluble fraction (log2): -1.47

HMNTNDFTIGTRVRTTKKGNGSSDGTSNTARSGIEGTITRIIPEAKYPYLVSTTVPMGWYKKDALEK
soluble fraction (log2): 0.00349

HMNTPLYLKIREQIFDALRSGRWAANDPLPSETKLASEFEVSQGTIRKAIDDLVAQNILYRHQGRGTFIRR
soluble fraction (log2): -1.21

HMNTSSVTVHYQDEAGKSLADTVTLTGKVGETYSSEQKKITGYNFKEVRGNPKGQFTTEAQTVTYVYTQAA
soluble fraction (log2): 0.211

HMNTWVEIFRAEDQGQIRDASLVLLAVKVAHRVDMNSSSAPWSLMVPAQDQQRAHHELTTYWQENAH
soluble fraction (log2): -2.03

HMNVAELIEGHEAEIAEVLKEFSLLYLMRLADELGEMTKSSSGNGPFQVLKGLVYEEIARRG
soluble fraction (log2): -1.65

HMNVAVPTPADKRKVRVMKADINAKLRVNDANGAYAVYEELKEWVTLKGFTEWNDDLSKLSETMGSMKRKV
soluble fraction (log2): -0.601

HMNVDALVGQRGRVTQTFDPGLRLGRVAVGGDDWRAETTTDQPLREGDLVEVVSVESNTLIVRPIA
soluble fraction (log2): 0.0567

HMNVDSLIGQTARVIVDINNNDSIGYALVGGQEWTARAENDNDIIPKDTLVEIVGVSGVKLIVRRKE
soluble fraction (log2): 0.0563

HMNVDSLVGSEARVTAEIDNRKETGTAMVNGQEWTARAESDEEIYPVGTIVEIRKIQGVKLIVSTH
soluble fraction (log2): -0.394

HMNVEATAETLLALLKKNGGSLPFGDKSDPEAIQSQLKMSKKTFKKAAGTLFKKKLVRIEDHGIFL
soluble fraction (log2): -2.02

HMNVEGEVVVPNVIGRTMKDVAVILSDLGLRMEAEGTGVAKSSQPQHGTSVKRGTVVQVRFEPLSVN
soluble fraction (log2): 0.648

HMNVEKLREMYPEGTKIILQEMQGESRMAKGLKGTVTHVDDAGQIHMKWENGSSLVLNVEVDTFKKIE
soluble fraction (log2): 0.0771

HMNVEVDSIGDDDFLVKVSAGTSTEHRVTLTDAYWEQIWSSSLPKKEIISLSFAFLLEREPNSSIMRT
soluble fraction (log2): 0.161

HMNVNALIGQEGIVIKEINSGSNKIGQVKISGDTWSAVTTNDFTNAIPVGSNVKILKIDGVNLIVEPVY
soluble fraction (log2): -0.255

HMNVNVSFTQLRHKAEHAIQAKNWSEARNLLTLATLMRPTHRNVARRLKAVEQRNRLFRRLLLILTHRKV
soluble fraction (log2): -0.429

HMNVPFGFDEVNGKLVKNEEEQAIISEIKSLKNKGLSLRKIAEALNGRGIATKNGKAWTAVQIQRIA
soluble fraction (log2): -0.318

HMNVPLYIMIESAVEQRLLDGTYQVGKMIPTEFELMDEFSVSRETVRKAINLLVQRGKLEKKRGIGTFVAS
soluble fraction (log2): -3.28

HMNVSDIENKLNEMLSPLEKKVMVLYLEGKSYVEIGELLGRHTKSVDNALQRVKRKLEIYLKNRK
soluble fraction (log2): -2.62

HMNVTIGESIKNVINHYGTPIYSYNPNNQEKYYEFHTNKGVLVVTAIGKKNTGYVTRVSMTY
soluble fraction (log2): -1.04

HMNVVDTGTDANYRVKISAVNLNMRLGPSTSYKSKGYITPGNYTIIKTSGDWGKVKETGYWVALKYTSKIN
soluble fraction (log2): -3.16

HMNVVINNELVSLMVEAMKDGVSSKSIQEEFEGYKISGKTITKKVLTAHVNKALEVFADMQE
soluble fraction (log2): -0.582

HMNYDPEEKITQIRTMLEIHSRIEFNEIITPATRRGEIIIIFLALLHMIKRGYIVVRQHRLFGDITIFARD
soluble fraction (log2): 0.0974

HMNYKDQISRYFQQAFHIYPKYQTMKNEEGNFTSKIFKDDKMIIEGVGKSKKKAEQDVSRKALIHFNVL
soluble fraction (log2): -0.376

HMNYKNAIGQVGSVYVPIPPNREGLGQIEVKVQSRVSTVRAVSDHSERLENRVAVRVIELVDDRTLLVEKL
soluble fraction (log2): -1.15

HMNYTSEDIKLASELFFHLLNNRILPANDVLASQYYDNNEIREILENMAEEGGLRIFGTRENLHLVSNGE
soluble fraction (log2): 0.00512

HMNYYDLLGIPKSATKQQIRKAYRTKAKEFHPDVNGPFNSHMHFLLLKQAYETLMDANMRHVYDMALIS
soluble fraction (log2): -2.4

HMPADHYEVLGIARDADAAEVKRAYRRLARESHPDANHGDSGAEVRFKAVSAAYEVLSDPERRARYDRFGH
soluble fraction (log2): 0.0495

HMPANVELLRTFTNKTGTKIKARIVAVSDNKVKLIRDDSKKFIVPIDSLSEEDQKYLKDWIANEVGEQ
soluble fraction (log2): -0.16

HMPARTANEEAIRKYLLNHDSITRKETQALLKTGQSAAGRILKEMVENGWLARIGNGRSTGYELR
soluble fraction (log2): -0.222

HMPATIEGIRLYLSSGLIKGVGEEMASRIVKAFGTDTIRVLDEEPERLLKVRGVGKKSLDRIRTSWAEH
soluble fraction (log2): -0.366

HMPATPDATVQAVQQRLNELGYDVGSADGLMGRGTRSAIIAFQQDRGLAATGVADQALLLQLQP
soluble fraction (log2): 0.105

HMPAWKINQELQATVIATKANQTRLRIEGQTFETQTAIALKPGQSLLIKVVSLEPQISFALI
soluble fraction (log2): -2.45

HMPDFLAELAARMERDAVTEAQIRQVVAQKGHYPEEVSPAQYHPDFFRQWLFPHWEKIVDVIRSSPEYTP
soluble fraction (log2): -0.126

HMPDGTATATASVNVRSGASTLSPVLGVLRVGESIGVTGQANGGWVPVNYNGRAGYVYAAYLSFD
soluble fraction (log2): -0.915

HMPDKIDSAAQGILDKLIRNDGFMAVTDKSPPEAIYKLFGVSKKVFKQAIGSLYKNRLITIEDAGLRIIPQ
soluble fraction (log2): -0.481

HMPDLKIGKDHRLAEYIETKIAEDGYSPGAVLGEIKAKGLEFETEISKPTLYSYIDKGIFLTITNKELPV
soluble fraction (log2): 0.25

HMPDLQKAIDDLLQVVDKRLNTSFESILNEVNSEKEAVAFFLALLEAVRWGFVKASQSDEGIKIEK
soluble fraction (log2): 0.211
